Assay results published in patent publication US20160206764A1 (ONCOINVENT, published 2016).

Key:
[1] = biological target: CD146 (melanoma cell adhesion molecule (MCAM), cell surface glycoprotein MUC18), endogenous on human tumor cell lines (human) (UniProt P43121); experiment: MelJRpost3.3 cells pre-treated with OJ97cMUC18; competitor/tracer ^125I-OI-3
[2] = biological target: T1, CD146 (melanoma cell adhesion molecule (MCAM), cell surface glycoprotein MUC18), endogenous on human tumor … (human, UniProt P43121 24-646); experiment: saturation binding of ^125I-OI-3 to Mel 3.3 melanoma cells, Ka=1/Kd
T1 construct: whole, on cells; Also used here for the endogenous protein in lysates and tissue sections of these cells (Western blot, immunoprecipitation, IHC); also called Mel-CAM

[3] = biological target: T1, CD146 (melanoma cell adhesion molecule …); experiment: saturation binding of ^125I-OI-3 to Mel 3.3 melanoma cells, Scatchard plot
[4] = biological target: T1, CD146 (melanoma cell adhesion molecule …); experiment: saturation binding of ^125I-OI-3 to Mel 3.3 melanoma cells, interpolation of binding plot at half βmax

| specific binding in % of ^125I-OI-3 after pre-treatment (no pretreatment = 100%) [1] [%] | Ka [2] [M⁻¹] | Kd [3] [nM] | Kd [4] [nM] | Molecule |
| --- | --- | --- | --- | --- |
| 101 |  |  |  | commercial murine monoclonal anti-CD146 (OJ79c MUC18) (antibody) |
|  | ~3.2e+08 | ~3.1 | 3.1 | OI-3 murine monoclonal antibody (antibody, V domains shown, also called ^177Lu-OI-3) VH: EVQLQQSGPELVKTGASVKISCKASGYSFTGYYIHWVKQSHGKSLEWIGYISNYNGATTYSQEFKGKATFTVDRSSRIAYMQFTGLTSEDSAVYYCAGNSWGDWYFDVWGAGTTVTVSS VL: DVVMTQTPLSLPVSLGDQASISCRSSQSLVHSNGNTYLHWYLQKPGQSPKLLIYKVSNRFSGVPDRFSGSGSGTDFTLKISRVEAEDLGVYFCSQSTHVSTFGGGTKLEIK |
